Results on 167 variants are retold here after the RNAGym collection of RNA variant scans (doi:10.7554/elife.80360).

The labels stand for the following.
B1: Twister Ribozyme (parent)
chain: AACACUGCCAAUGCCGGUCCCAAGCCCGGAUAAAAGUGGAGGGGGCGG

In the data set the parent is B1. The experiment in a line: self-cleavage, relative activity (ratio to wild type); higher = more cleavage; co-transcriptional.
As for A33U G39A, the self-cleavage stood at 0.512.
U6G G47C: the self-cleavage came out at 0.179.
In the case of G13U G38A, the self-cleavage amounted to 0.226.
To G16U G47C belongs 0.426.
Take U6C A32C: the self-cleavage was 0.349.
For A1U A2G, the self-cleavage worked out at 0.0622.
As for A10C G13A, the self-cleavage worked out at 0.764.
As to C20A G28U, the self-cleavage was found to be 0.0952.
On to A1G G48A, for which the self-cleavage was found to be 0.414.
Consider C8A C20A, for which the self-cleavage was 0.0847.
As to A1G C25A, the self-cleavage worked out at 0.197.
As for A30G A34U, the self-cleavage worked out at 0.86.
With C19G A30C, the self-cleavage was 0.0929.
For the variant C3U G43A, the self-cleavage was determined as 0.0963.
For the variant C3G G43A, the self-cleavage was found to be 0.12.
Turning to C15G G39A, the self-cleavage is 0.0759.
Consider G24U G44U, for which the self-cleavage turned out to be 0.097.
Under G24U G44A stands 0.127; under A2C G45C, 0.0767.
To G13C C25G belongs 0.101.
For G45C G47C, the self-cleavage amounted to 0.427.
Regarding A4C U12G, the self-cleavage was determined as 0.332.
Turning to C8G A30C, the self-cleavage worked out at 0.122.
Take A1U U31G: the self-cleavage was found to be 0.0468.
In the case of C14G A40G, the self-cleavage was 0.0712.
With A22G A35C, the self-cleavage amounted to 0.195.
On to C3G A35G, for which the self-cleavage was 0.317.
As for A23U A34U, the self-cleavage was 0.121.
G36U G44C: the self-cleavage was found to be 0.372.
As to G7U G43U, the self-cleavage was 0.102.
For A33G G48C, the self-cleavage worked out at 1.07.
In the case of A4C, the self-cleavage turned out to be 0.218.
For A4U U12C, the self-cleavage was found to be 0.0758.
Regarding A22U G38U, the self-cleavage was 0.353.
Under A33U G45U stands 0.843; under C21A C27A, 0.0685; under G38C A40G, 0.134.
For C25U G39U, the self-cleavage was 0.158.
For the variant C25U A30U, the self-cleavage was 0.932.
For U6C G48C, the self-cleavage worked out at 0.829.
With G17C, the self-cleavage is 0.153.
As to G13C G47C, the self-cleavage was 0.179.
Regarding C8A G48U, the self-cleavage turned out to be 0.257.
On to G28A G48A, for which the self-cleavage was 0.775.
To C9A C26A belongs 0.11; to C21U C46U, 0.0929.
To U37A G42A belongs 0.129.
As for A23G G42U, the self-cleavage was found to be 0.121.
As to C9A G39C, the self-cleavage stood at 0.119.
For C3A C27A, the self-cleavage was 0.148.
Turning to A2C U6G, the self-cleavage is 0.0861.
To U6G G45A belongs 0.141.
As for A1C A34G, the self-cleavage was 0.19.
Turning to C27A G41A, the self-cleavage is 0.119.
Regarding U12A G36C, the self-cleavage was 0.693.
Under A4G C14G stands 0.276; under C5U G17A, 0.237.
Under C19A G47C stands 0.155; under A32U G42A, 0.324; under A32U G42C, 0.437.
On to U18C C25A, for which the self-cleavage amounted to 0.105.
Consider C14A A40C, for which the self-cleavage was found to be 0.189.
Under C14A A40G stands 0.136; under C15U, 0.975.
Take G16C C27G: the self-cleavage came to 0.608.
For the variant C5A U18G, the self-cleavage was 0.0654.
As for A22U C46G, the self-cleavage was 0.816.
Under G13U C19G stands 0.0472.
For the variant C8G U31G, the self-cleavage worked out at 0.464.
As for C8G G43U, the self-cleavage is 0.148.
Under G24A G38C stands 0.106; under C20G G43A, 0.0749.
For the variant A2G G48U, the self-cleavage was 0.255.
For U6A C21G, the self-cleavage turned out to be 0.
Under A1G U37C stands 0.192; under A34U G36C, 0.132; under C3U C9U, 0.253.
On to G24A G47U, for which the self-cleavage came to 0.0892.
Regarding G13U C21G, the self-cleavage was 0.0567.
A2U A32U: the self-cleavage amounted to 0.722.
Take C8A C21A: the self-cleavage came to 0.0745.
A22U G29C: the self-cleavage is 0.604.
For C15A A23C, the self-cleavage was found to be 0.0415.
On to C15A G45U, for which the self-cleavage came to 0.528.
Regarding G17A U31G, the self-cleavage worked out at 0.706.
Under A11C C27G stands 0.0803; under U18G C21A, 0.133; under C5A A11U, 0.351.
Take A4U U37C: the self-cleavage turned out to be 0.022.
Under U6C A10G stands 0.809; under G13C G44U, 0.254.
Under U6A G47A stands 0.862; under A11U G48U, 1.12.
Under C19A G36A stands 0.102; under G17U A40U, 0.145.
On to G7A G13C, for which the self-cleavage amounted to 0.0492.
Regarding A1G C20G, the self-cleavage was found to be 0.134.
Consider G7U G17A, for which the self-cleavage came to 0.0885.
For the variant A22U A34U, the self-cleavage was determined as 0.495.
As to U31A G41U, the self-cleavage was 0.55.
Take A2C A4U: the self-cleavage worked out at 0.0426.
As for C3A A34G, the self-cleavage was 0.1.
C5A G28C: the self-cleavage stood at 0.229.
Regarding U6C U31C, the self-cleavage stood at 0.712.
Consider G36C G38C, for which the self-cleavage came out at 0.217.
C14U G16A: the self-cleavage stood at 0.871.
To C27G G48U belongs 0.0985.
Turning to C46U G47U, the self-cleavage turned out to be 1.02.
Take A11U G39C: the self-cleavage was found to be 0.149.
As for G16A G29U, the self-cleavage was found to be 0.663.
Under C3A U18C stands 0.0738; under A2U A4G, 0.413; under G7U C15U, 0.101.
To U37G G39C belongs 0.143; to A22U G43U, 0.185; to U12A C15A, 0.901.
Take A22G A30U: the self-cleavage came out at 0.316.
Turning to A40C G41U, the self-cleavage worked out at 0.157.
In the case of C21U A33C, the self-cleavage was 0.119.
As for U18G A34C, the self-cleavage was determined as 0.0636.
To C15G G16C belongs 0.305.
With A30U G41U, the self-cleavage turned out to be 0.712.
Regarding G13A C26A, the self-cleavage is 0.095.
As to G29A G43A, the self-cleavage came to 0.195.
On to G13U G45C, for which the self-cleavage came to 0.194.
As to U12C A35G, the self-cleavage stood at 0.837.
G13U A23C: the self-cleavage was found to be 0.0557.
For the variant A1U C5G, the self-cleavage is 0.0467.
With A2G C9U, the self-cleavage is 0.0996.
With G36C C46A, the self-cleavage worked out at 0.367.
In the case of A33C G38C, the self-cleavage came to 0.918.
To G13A G29U belongs 0.598; to C3G C5G, 0.101; to G7A A30C, 0.108.
To G7A A30U belongs 0.425; to C3U A35U, 0.421; to C21G G43C, 0.0506.
Turning to A33G G43A, the self-cleavage was determined as 0.268.
For the variant C19A C26U, the self-cleavage was determined as 0.0877.
To U12G G39A belongs 0.477; to C15G G47U, 0.0543.
To A11G C14U belongs 0.943; to G24C G47U, 0.0811; to U18A G38C, 0.448.
Under C21G C25A stands 0.0791; under A33C G48U, 1.04.
On to C8A U37A, for which the self-cleavage was found to be 0.225.
Regarding C14U A35U, the self-cleavage worked out at 1.03.
In the case of A10G G47U, the self-cleavage came out at 1.01.
To A1U A33C belongs 0.0396; to A4C C26U, 0.0418.
With A22G C25A, the self-cleavage amounted to 0.0752.
As for A1G U31A, the self-cleavage was 0.24.
Turning to A32C G36A, the self-cleavage came out at 0.473.
In the case of A32C G36C, the self-cleavage amounted to 0.283.
Take A23G A35U: the self-cleavage was found to be 0.472.
On to G16U G41C, for which the self-cleavage was 0.212.
In the case of A35C G39U, the self-cleavage was found to be 0.144.
Under A34C G41A stands 0.133.
Consider U12A G41U, for which the self-cleavage was 0.772.
Take A4G A32U: the self-cleavage amounted to 0.945.
For G16A A34C, the self-cleavage is 0.174.
In the case of A11G U37G, the self-cleavage was 0.494.
Consider G38C G47A, for which the self-cleavage is 0.737.
In the case of A1U U12C, the self-cleavage was determined as 0.0693.
As to A23U U31G, the self-cleavage came to 0.643.
For A34U G43C, the self-cleavage is 0.186.
